Data: patent US20260193644A1, “Compositions and Methods For Modulation of Tumor Suppressors and Oncogenes” (FLAGSHIP PIONEERING INNOVATIONS VII, LLC, priority 2022, published 2026)
No end group written: not given here.

Key:
Type in all cases: cell-based
[1] = tested on: HCT116 colon cancer cell line; assay: Maestro Z impedance-based assay on HCT116 cells stably over-expressing target protein; conditions: 2 days
Method: Over-expression: Stable over-expression tumor cell lines were made by transduction using lentivirus. For virus production, HEK-293T cells were cultured in DMEM with high glucose and GlutaMAX™ medium (ThermoFisher) supplemented with 10% FBS. After 24 h, cells were transfected using lipofectamine 3000 (ThermoFisher) of Lentiviral packaging plasmid mix (CELLECTA) and pGenLenti plasmids (GenScript Inc) containing: 1) no insert, 2) Target Protein encoding sequence, and 3) the AP2A1 protein (positive control for cell proliferation; https://doi.org/10.1038/sj.one.1205216), into HCT116 (Colon cancer cell line; ATCC). A Myc-tag (EQKLISEEDL) was added to the c-terminus of the expressed protein. After 48 hr post-transfection, culture media containing viruses was collected, loaded onto a 10 ml syringe and filtered through a 0.45 μm filter. […]
Maestro Z Impedance-based assay: The Maestro Z platform (Axion Biosystems) uses impedance measurements (ohms, (2) to quantify the presence of cells on the electrode. Since impedance is noninvasive and label-free, impedance assay is used to quantify dynamic cellular growth over time. For impedance recording, cells were seeded in 96 well assay plate, and the plate was docked in the Maestro Z and the automatic environment controls set the chamber to 37° C. and 5% CO2. Impedance measurements were recorded every minute for the 2 days.

NAMALWA cells = assay: Chemotaxis assay (trans-well cell migration); conditions: NAMALWA human Burkitt lymphoma cells; 24 hours; SDF-1 (CXCL-12)
Method: Chemotaxis Assay: NAMALWA cells (human Burkitt lymphoma cell line, ATCC) were cultured in serum-free ATCC formulated RPMI for 24 hr prior to the assay. After starvation, harvest cells and centrifuge at 1,000×g, for 5 minutes to pellet them. Resuspend the cell in a serum-free media. Using Cell Migration/Chemotaxis Assay Kit (96-well, 8 μm) from Abcam, add 150 μL of serum-free media containing desired chemoattractant to the bottom chamber. Then add 50,000 cells and desired inhibitor (or peptides) to each well of the top chamber. Place the plate and incubate at 37° C. in CO2 incubator for 24 hours. After incubation, add 110 μL of Cell Dye+Cell Dissociation Solution mix to each bottom well and incubate at 37° C. in CO2 incubator for an hour. After incubation remove the top chamber and read the plate at Ex/Em=530/590 nm.

CXCR4 = CXCR4 (Homo sapiens, UniProt P61073); assay: PathHunter β-Arrestin CXCR4 human chemokine GPCR antagonist assay (gpcrMAX screening and hit-confirmation); conditions: for % inhibition: hit-confirmation
CXCR4, sequence (P61073 whole entry): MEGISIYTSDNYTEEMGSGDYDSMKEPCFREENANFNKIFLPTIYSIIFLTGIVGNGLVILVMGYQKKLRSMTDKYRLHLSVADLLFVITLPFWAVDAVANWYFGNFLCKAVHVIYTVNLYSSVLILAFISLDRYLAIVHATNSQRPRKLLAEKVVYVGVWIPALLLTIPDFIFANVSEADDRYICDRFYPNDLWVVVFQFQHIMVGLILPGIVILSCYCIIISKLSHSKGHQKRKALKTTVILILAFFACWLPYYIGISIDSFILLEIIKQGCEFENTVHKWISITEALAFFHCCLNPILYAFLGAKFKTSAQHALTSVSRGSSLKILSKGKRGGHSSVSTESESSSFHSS
Method: SEQ ID NO: 30949 blocks CXCR4 and cancer cell migration, making it suitable in the treatment of multiple cancers. Whereas SEQ ID NO: 34229 agonizes C3AR1, a key regulator of immune response and inflammation. The target proteins SEQ ID NO: 30949 and SEQ ID NO: 34229 were treated with gpcrMAX, which is a comprehensive panel covering 168 G protein-coupled receptors (GPCRs) from over 60 distinct receptor families. This panel utilizes PathHunter® β-Arrestin technology (Eurofins DiscoverX). PathHunter β-Arrestin GPCR cell lines are engineered to co-express the ProLink™ (PK) tagged GPCR and the Enzyme Acceptor (EA) tagged β-Arrestin. Activation of the GPCR-PK induces β-Arrestin-EA recruitment, forcing complementation of the two β-galactosidase enzyme fragments (EA and PK). The resulting functional enzyme hydrolyzes substrate to generate a chemiluminescent signal.
Cell Handling: PathHunter® cell lines were expanded from freezer stocks according to standard procedures. Cells were seeded in a total volume of 20 μL into white walled, 384-well microplates and incubated at 37° C. for the appropriate time prior to testing. […]
Signal Detection: Assay signal was generated through a single addition of 12.5 or 15 μL (50% v/v) of PathHunter® Detection reagent cocktail, followed by a one-hour incubation at room temperature. Microplates were read following signal generation with a PerkinElmer Envision™ instrument for chemiluminescent signal detection.
Data Analysis: Compound activity was analyzed using CBIS data analysis suite (ChemInnovation, CA). For agonist mode assays, percentage activity was calculated using the following formula: % Activity=100%×(mean RLU of test sample−mean RLU of vehicle control)/(mean MAX control ligand−mean RLU of vehicle control). For antagonist mode assays, percentage inhibition was calculated using the following formula: % Inhibition=100%×(1−(mean RLU of test sample−mean RLU of vehicle control)/(mean RLU of EC80 control−mean RLU of vehicle control)).

HepG2 cells = assay: Caspase-Glo 3/7 apoptosis assay, peptide-treated HepG2 cells; conditions: listed = significant
Method: Cell Culture: Tumor cell lines HCT-116 (Colon Cancer Cell line, ATCC) and U2OS (Osteoscarcoma Cell line, ATCC) cells were grown adherently in ATCC-formulated McCoy's 5a medium supplemented with 10% FBS and 1× penicillin-streptomycin at 37° C. (5% CO2). Jurkat cells (acute T-cell leukemia cell line, ATCC) were grown as suspension cultures in ATCC-formulated RPMI-1640 supplemented with 10% FBS and 1× penicillin-streptomycin at 37° C. (5% CO2). HEP-G2 cells (Liver Cancer Cell line, ATCC) cells were grown adherently in ATCC-formulated Eagle's Minimum Essential Medium (EMEM) supplemented with 10% FBS and 1× penicillin-streptomycin at 37° C. (5% CO2). […]
Apoptosis Assay: Following 24 hrs of peptide treatment, an equal volume reconstituted Caspase-Glo® 3/7 assay reagent mixture (Promega) was added to the cells. […] The treated plates were then read for luminescence on Promega™ GloMax® Plate Reader. A blank reaction that contained caspase-Glo® 3/7 reagent, vehicle and cell culture medium without cells was used to measure background luminescence. […] Significant difference in apoptosis was determined using ANOVA analysis by comparing cells treated with SEQ ID NO: 37997 peptide to cells treated with an irrelevant control peptide, or vehicle control treated cells.

Jurkat cells = assay: Caspase-Glo 3/7 apoptosis assay, peptide-treated Jurkat cells; conditions: listed = significant
Method: Cell Culture: Tumor cell lines HCT-116 (Colon Cancer Cell line, ATCC) and U2OS (Osteoscarcoma Cell line, ATCC) cells were grown adherently in ATCC-formulated McCoy's 5a medium supplemented with 10% FBS and 1× penicillin-streptomycin at 37° C. (5% CO2). Jurkat cells (acute T-cell leukemia cell line, ATCC) were grown as suspension cultures in ATCC-formulated RPMI-1640 supplemented with 10% FBS and 1× penicillin-streptomycin at 37° C. (5% CO2). HEP-G2 cells (Liver Cancer Cell line, ATCC) cells were grown adherently in ATCC-formulated Eagle's Minimum Essential Medium (EMEM) supplemented with 10% FBS and 1× penicillin-streptomycin at 37° C. (5% CO2).
Peptide Treatment: Target protein SEQ ID NO: 37997 was synthesized through Fluorenylmethyloxycarbonyl (Fmoc) protection group chemistry using Solid Phase Peptide Synthesis (SPPS). 5 μM of target peptide and control peptides were added to a 96 well plate containing 10,000 cells (100 μL/well). A white-walled 96-well plate adequate for cell culture and compatible with the luminometer was used. (Corning)
Apoptosis Assay: Following 24 hrs of peptide treatment, an equal volume reconstituted Caspase-Glo® 3/7 assay reagent mixture (Promega) was added to the cells. The contents of wells were gently mixed using a plate shaker at 300-500 rpm for 30 seconds. The plate was then Incubate at room temperature for 3 hours. The treated plates were then read for luminescence on Promega™ GloMax® Plate Reader. A blank reaction that contained caspase-Glo® 3/7 reagent, vehicle and cell culture medium without cells was used to measure background luminescence. The blank reaction values were subtracted from experimental values. A negative control that contained caspase-Glo® 3/7 reagent and vehicle-treated cells in medium was included to determine the basal caspase activity of the cell culture system. Significant difference in apoptosis was determined using ANOVA analysis by comparing cells treated with SEQ ID NO: 37997 peptide to cells treated with an irrelevant control peptide, or vehicle control treated cells.

[2] = tested on: HCT116 colon cancer cell line; assay: WST-1 proliferation assay on HCT116 cells stably over-expressing target protein; conditions: low serum (0.1% FBS); 48 hours
Method: Over-expression: Stable over-expression tumor cell lines were made by transduction using lentivirus. For virus production, HEK-293T cells were cultured in DMEM with high glucose and GlutaMAX™ medium (ThermoFisher) supplemented with 10% FBS. After 24 h, cells were transfected using lipofectamine 3000 (ThermoFisher) of Lentiviral packaging plasmid mix (CELLECTA) and pGenLenti plasmids (GenScript Inc) containing: 1) no insert, 2) Target Protein encoding sequence, and 3) the AP2A1 protein (positive control for cell proliferation; https://doi.org/10.1038/sj.one.1205216), into HCT116 (Colon cancer cell line; ATCC). A Myc-tag (EQKLISEEDL) was added to the c-terminus of the expressed protein. After 48 hr post-transfection, culture media containing viruses was collected, loaded onto a 10 ml syringe and filtered through a 0.45 μm filter. For cell transduction, HCT116 colorectal cancer cells were seeded in 6-well plates, the virus was added to the cells. After post-transduction, stable cell mixed populations are selected for with puromycin for 14 days. Expression of the Target Protein and controls are confirmed by immunoblot of 50 μg of cell lysate using anti-myc-tag polyclonal antibody (CST).
Proliferation: Polyclonal cell lines that over-express the Target Protein or control, wild-type HCT-116 cells, were plated in 96 well plate (10,000 or 5,000 cells per well) grown in standard media in both low serum (0.1% FBS) and high serum (10% FBS) conditions, respectively. After 48 hours, the cells are subjected to the WST-1 ([…]) assay. The WST-1 assay (Sigma) is a measure of the metabolic activity of group of cells. The higher the metabolic activity the higher the proliferation rate. Significant differences in proliferation are determined by comparing protein-expressing cell lines with a stable cell line of the empty expression vector (control) using ANOVA analysis.

With “SEQ ID NO: 30462: target protein over-expressed (Myc-tagged) in stable HCT116 cell line; oncogene (METFEIFYLKCIRVNLISRQLNTFFLAVLLVVCMPCFHSVCTGKRT; cysteine pairing not given here; also: Myc tag; listed as Homo sapiens)” the “proliferation over time (impedance) on over-expression vs Empty Vector” value [1] was “significantly increases proliferation”.

“SEQ ID NO: 30949: novel peptide GPCR ligand that blocks CXCR4; sequence only in Sequence Listing (MTAFGLGIPTFLVMQPSGSQPRFPALTQNGVALVRTPLTSVYLRVRICRVLGPRSQPS; listed as Homo sapiens)” was tested, and the chemotactic migration (NAMALWA cells) was “significantly inhibit the chemotactic migration”, the “GPCR ligand mode at CXCR4” value (CXCR4; gpcrMAX panel) was “blocked CXCR4” and the “% inhibition” value (CXCR4; 0.3 μM) was ~ 80%. The “% inhibition” value (CXCR4; 1 μM) was ~ 80%.

With “SEQ ID NO: 34224: ORF peptide; sequence only in Sequence Listing (MSFDHPEKNGPWPADPINLPSHG; listed as Homo sapiens)” the “z-score compared to vehicle control (peptides inducing significant apoptosis)” value (HepG2 cells) was “SEQ ID NO: 34224” and the “peptides inducing significant apoptosis vs vehicle control” value (Jurkat cells) was “SEQ ID NO: 34224”.

B1: AP2A: published oncoprotein, over-expressed positive control for cell proliferation (protein, UniProt O95782 1-977, looked up)
AP-2 complex subunit alpha-1: MPAVSKGDGMRGLAVFISDIRNCKSKEAEIKRINKELANIRSKFKGDKALDGYSKKKYVCKLLFIFLLGHDIDFGHMEAVNLLSSNKYTEKQIGYLFISVLVNSNSELIRLINNAIKNDLASRNPTFMCLALHCIANVGSREMGEAFAADIPRILVAGDSMDSVKQSAALCLLRLYKASPDLVPMGEWTARVVHLLNDQHMGVVTAAVSLITCLCKKNPDDFKTCVSLAVSRLSRIVSSASTDLQDYTYYFVPAPWLSVKLLRLLQCYPPPEDAAVKGRLVECLETVLNKAQEPPKSKKVQHSNAKNAILFETISLIIHYDSEPNLLVRACNQLGQFLQHRETNLRYLALESMCTLASSEFSHEAVKTHIDTVINALKTERDVSVRQRAADLLYAMCDRSNAKQIVSEMLRYLETADYAIREEIVLKVAILAEKYAVDYSWYVDTILNLIRIAGDYVSEEVWYRVLQIVTNRDDVQGYAAKTVFEALQAPACHENMVKVGGYILGEFGNLIAGDPRSSPPVQFSLLHSKFHLCSVATRALLLSTYIKFINLFPETKATIQGVLRAGSQLRNADVELQQRAVEYLTLSSVASTDVLATVLEEMPPFPERESSILAKLKRKKGPGAGSALDDGRRDPSSNDINGGMEPTPSTVSTPSPSADLLGLRAAPPPAAPPASAGAGNLLVDVFDGPAAQPSLGPTPEEAFLSELEPPAPESPMALLADPAPAADPGPEDIGPPIPEADELLNKFVCKNNGVLFENQLLQIGVKSEFRQNLGRMYLFYGNKTSVQFQNFSPTVVHPGDLQTQLAVQTKRVAAQVDGGAQVQQVLNIECLRDFLTPPLLSVRFRYGGAPQALTLKLPVTINKFFQPTEMAAQDFFQRWKQLSLPQQEAQKIFKANHPMDAEVTKAKLLGFGSALLDNVDPNPENFVGAGIIQTKALQVGCLLRLEPNAQAQMYRLTLRTSKEPVSRHLCELLAQQF
For B1, the “proliferation over time (impedance) on over-expression vs Empty Vector” value [1] was “significantly increases proliferation” and the “proliferation (WST-1) on over-expression vs Empty Vector” value [2] was “significantly increases proliferation”.

B2: SEQ ID NO: 26966: ORF peptide; sequence only in Sequence Listing (peptide, listed as Homo sapiens)
chain: VSPRFLVLKSSPAHRDSDSPQTPRLRVMESRTLLLLFSGAVALIQTWADYNYNQGRNDLIFTLQLWKRQ
In the case of B2, the “z-score compared to vehicle control (peptides inducing significant apoptosis)” value (HepG2 cells) is reported as “SEQ ID NO: 26966”.
